# In patent US20020164762A1 (BASF AKTIENGESELLSCHAFT, published 2002):
# Numbering of substitutions follows the chain as printed. Names and notes keep the numbering of the source.
# T1: N-His-tagged p20 subunit of human ICE (human, UniProt P29466 120-297)
# T1 construct: Subunit released from N-His p30 by autoprocessing
# T1 sequence: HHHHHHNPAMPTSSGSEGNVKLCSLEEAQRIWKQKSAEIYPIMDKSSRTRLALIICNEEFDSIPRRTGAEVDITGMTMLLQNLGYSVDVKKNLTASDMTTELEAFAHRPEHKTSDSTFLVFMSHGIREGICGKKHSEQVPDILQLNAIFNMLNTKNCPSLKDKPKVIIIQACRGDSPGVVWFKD
# B1: wild-type p10 subunit of human ICE (other)
# chain: AIKKAHIEKDFIAFCSSTPDNVSWRHPTMGSVFIGRLIEHMQEYACSCDVEEIFRKVRFSFEQPDGRAQMPTTERVTLTRCFYLFPGH
# notes: Subunit released from WT N-His p30 by autoprocessing; also called ICE 317-404
# B2: D381E-modified p10 subunit of human ICE (other)
# chain: B1 chain with D65E
# notes: Subunit released from D381E N-His p30 by autoprocessing; also called p10 D381E; ICE 317-404 D381E
# Target: T1, N-His-tagged p20 subunit of human ICE
# Assay: co-expression as N-His p30 in E. coli, nickel chelating column purification
# Text: ICE (WT or modified) with an N-terminal polyhistidine tag was expressed in E. coli and purified using methodology described in Kamens et al. (1995) J. Biol. Chem., 270:15250-15256. Briefly, a DNA fragment encoding amino acid residues 120 to 404 of wild-type or D381E-modified ICE (p30) was cloned into an expression vector such that the p30-encoding fragment was fused in-frame at its N-terminus to DNA encoding six histidine residues. Following expression, the p30 fragment is correctly processed to p20 and p10 subunits, which associate to form mature, active N-His-tagged ICE proteins. The N-His ICE fusion proteins then were purified on a nickel chelating column (Porath, J. (1992) Protein Expression and Purification 2:263-281).
row,Binder,binding result
1,B1,binds
2,B2,binds
